Changes are numbered by the printed parent chain. Numbers in names are those of the source.
Tests used:
[1] = substrate: OC[C@H]1O[C@H](OC[C@H]2O[C@H](O[C@]3(CO)O[C@H](CO)[C@@H](O)[C@@H]3O)[C@H](O)[C@@H](O)[C@@H]2O)[C@H](O)[C@@H](O)[C@H]1O; test: purified protein; type: biochemical, Bombyx mori; conditions: 10 mM Britton-Robinson buffer pH 7.0, 30 °C (standard assay), 2 μg protein, raffinose 10-70 mM
[2] = substrate: OC[C@H]1O[C@@](CO)(O[C@H]2O[C@H](CO)[C@@H](O)[C@H](O)[C@H]2O)[C@@H](O)[C@@H]1O; test: purified protein; type: biochemical, Bombyx mori; conditions: 10 mM Britton-Robinson buffer pH 7.0, 30 °C (standard assay), 2 μg protein, sucrose 40-280 mM

B1: BmSUC1 (wtBmSUC1) (Bombyx mori) (protein)
chain: LRQQNETTKRELEEYIADKKAEINPRYRPHYHISPPVGWMNDPNGFSYYKEKFHLFYQFYPYDSVWGPMHWGHVSSSNLIDWEHLPTALIPETEMCFSGGAVVHGDDLVLLYTGRVTTDTDPFYNETQYLAFSNDGVNFRKYEGNPVLSYVPDNSADFRDPKIWKFKDHWYVVIGSSSNKRGRVLLYRSGDLFNWEFLSVLGESDGDMGYMWECPDLFELGGKTIFLWSPQGLEPKGDRYKNTYQTGYYIGELDYETFEFKTDKYFQELDYGHDFYATQTIQGDGKTYLIGWFNMWEVPHLEKEDGWAGTTTLVRELQLIGTRITMNPLEGIQDLRTDSVHNGDLEPQQAIEFGPTAEIILQGCLDQKIELLIQGKEGGLVTTVTWDPEVGKVIVNRSGEVRQVEWVPIGKTSWRLFLDASSLELFCGEGEVVFSSRIFSDGDWVVKNSSPQTLSVEAYRLRRSVPA
notes: full coding region (488 aa, about 56 kDa), C-terminal 6xHis tag kept; expressed in BmN cells by Bac-to-Bac/BmNPV, secreted (N-terminal signal peptide), Ni-NTA purified from culture medium
Km [1]: 52.32 ± 17.22 mM | kcat [1]: 0.025 ± 0.0028 s⁻¹ | kcat/Km [1]: 0.291 M⁻¹ s⁻¹ | Km [2]: 88.32 ± 11.75 mM | kcat [2]: 0.022 ± 0.0009 s⁻¹ | kcat/Km [2]: 0.249 M⁻¹ s⁻¹

B2: BmSUC1 (wtBmSUC1) (Bombyx mori; D181A) (protein)
chain: B1 chain with D160A
notes: as for B1
Km [1]: 32.03 ± 4.43 mM | kcat [1]: 0.021 ± 0.0014 s⁻¹ | kcat/Km [1]: 0.656 M⁻¹ s⁻¹ | Km [2]: 52.87 ± 6.85 mM | kcat [2]: 0.025 ± 0.0004 s⁻¹ | kcat/Km [2]: 0.473 M⁻¹ s⁻¹
